From patent US20220380471A1 (US Dept. of Health and Human Services, published 2022)

T1: monkey B7H3-His (monkey)
T1 chain: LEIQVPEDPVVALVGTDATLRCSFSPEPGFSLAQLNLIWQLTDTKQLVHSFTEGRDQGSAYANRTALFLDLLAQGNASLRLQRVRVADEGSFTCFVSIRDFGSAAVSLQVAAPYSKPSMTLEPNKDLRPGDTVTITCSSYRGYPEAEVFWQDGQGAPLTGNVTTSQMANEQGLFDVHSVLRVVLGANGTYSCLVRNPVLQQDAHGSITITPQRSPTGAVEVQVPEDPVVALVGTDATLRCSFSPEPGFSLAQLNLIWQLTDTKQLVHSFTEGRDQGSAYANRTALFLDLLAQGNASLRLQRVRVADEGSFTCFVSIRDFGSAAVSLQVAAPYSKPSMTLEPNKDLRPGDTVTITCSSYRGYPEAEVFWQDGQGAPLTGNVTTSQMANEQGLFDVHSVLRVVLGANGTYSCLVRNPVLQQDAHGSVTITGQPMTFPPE

T2: human B7H3 (human, UniProt Q5ZPR3 29-466, limits assumed)
T2 construct: also called human B7H3 protein
T2 sequence (looked up): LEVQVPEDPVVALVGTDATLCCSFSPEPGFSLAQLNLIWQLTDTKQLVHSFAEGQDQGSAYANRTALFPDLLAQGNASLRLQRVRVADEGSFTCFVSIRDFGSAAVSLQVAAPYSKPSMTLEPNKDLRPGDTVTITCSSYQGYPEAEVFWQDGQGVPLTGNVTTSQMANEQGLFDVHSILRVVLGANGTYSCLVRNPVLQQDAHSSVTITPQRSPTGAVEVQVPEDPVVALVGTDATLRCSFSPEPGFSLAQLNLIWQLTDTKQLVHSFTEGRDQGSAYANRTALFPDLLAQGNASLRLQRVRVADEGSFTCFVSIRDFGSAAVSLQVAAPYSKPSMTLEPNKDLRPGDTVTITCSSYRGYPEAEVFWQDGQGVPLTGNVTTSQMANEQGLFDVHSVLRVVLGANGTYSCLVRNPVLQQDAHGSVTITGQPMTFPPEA

T3: B7H3 (CD276) on MC38-CD276+ cells
T3 construct: whole, on cells; MC38-CD276KO cells served as the negative control; also called MC38-B7H3+
T3 sequence (Q5ZPR3 1-534, species assumed, looked up): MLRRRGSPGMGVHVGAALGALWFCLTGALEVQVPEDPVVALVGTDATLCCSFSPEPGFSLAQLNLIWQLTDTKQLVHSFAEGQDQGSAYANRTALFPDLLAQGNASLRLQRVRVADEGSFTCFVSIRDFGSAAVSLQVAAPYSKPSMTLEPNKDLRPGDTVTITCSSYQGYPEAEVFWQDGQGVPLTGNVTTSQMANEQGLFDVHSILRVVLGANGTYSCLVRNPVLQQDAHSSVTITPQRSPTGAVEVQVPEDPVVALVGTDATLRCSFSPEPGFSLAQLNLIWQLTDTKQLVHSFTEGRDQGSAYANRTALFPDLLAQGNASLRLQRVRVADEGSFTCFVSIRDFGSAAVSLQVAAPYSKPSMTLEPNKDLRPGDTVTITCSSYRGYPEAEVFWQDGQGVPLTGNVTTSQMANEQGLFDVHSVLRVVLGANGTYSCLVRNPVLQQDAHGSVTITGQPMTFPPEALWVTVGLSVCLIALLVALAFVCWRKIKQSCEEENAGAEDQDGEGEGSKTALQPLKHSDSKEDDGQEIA

T4: rat B7H3-His (rat, UniProt Q7TPB4 29-244, limits assumed)
T4 construct: not shown: His tag
T4 sequence (looked up): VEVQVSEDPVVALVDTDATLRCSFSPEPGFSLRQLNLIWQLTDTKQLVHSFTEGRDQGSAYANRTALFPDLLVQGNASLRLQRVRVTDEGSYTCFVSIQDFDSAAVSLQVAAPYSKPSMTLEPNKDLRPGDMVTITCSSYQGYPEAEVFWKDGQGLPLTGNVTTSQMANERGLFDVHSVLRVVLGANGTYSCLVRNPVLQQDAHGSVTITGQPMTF

T5: mouse B7H3-His (mouse, UniProt Q8VE98 29-244, limits assumed)
T5 construct: also called recombinant mouse B7H3-His protein; not shown: His tag
T5 sequence (looked up): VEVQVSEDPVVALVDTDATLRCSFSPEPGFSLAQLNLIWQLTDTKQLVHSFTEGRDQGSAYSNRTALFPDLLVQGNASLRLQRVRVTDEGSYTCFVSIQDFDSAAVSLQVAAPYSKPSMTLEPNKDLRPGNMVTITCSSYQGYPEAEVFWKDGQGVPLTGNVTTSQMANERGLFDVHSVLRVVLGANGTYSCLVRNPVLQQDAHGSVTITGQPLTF

T6: recombinant human B7H3-Fc protein (human, UniProt Q5ZPR3 29-466, limits assumed)
T6 construct: 154 kDa non-reduced, 77 kDa reduced; also called hB7H3-Fc; not shown: Fc part
T6 sequence (looked up): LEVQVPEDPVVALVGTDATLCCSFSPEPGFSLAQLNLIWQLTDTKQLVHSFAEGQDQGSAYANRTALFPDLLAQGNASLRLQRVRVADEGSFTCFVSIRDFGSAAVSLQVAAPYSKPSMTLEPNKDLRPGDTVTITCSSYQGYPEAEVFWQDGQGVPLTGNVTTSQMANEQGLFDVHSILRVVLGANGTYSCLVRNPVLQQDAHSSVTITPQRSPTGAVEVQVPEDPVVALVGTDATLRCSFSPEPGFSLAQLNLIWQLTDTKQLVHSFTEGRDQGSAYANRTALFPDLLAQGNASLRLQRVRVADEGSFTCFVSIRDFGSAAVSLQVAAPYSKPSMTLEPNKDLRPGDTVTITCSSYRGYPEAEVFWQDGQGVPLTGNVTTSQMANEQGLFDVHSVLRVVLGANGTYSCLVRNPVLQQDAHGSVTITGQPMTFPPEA


Tests used:
Irrelevant antigen = molecular target: T7, Irrelevant antigen; assay: ELISA; row Irrelevant antigen; well 3 of 3
T7 construct: negative control
In short: (§1)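 Camel VHH nanobodies were isolated by phage panning on recombinant B7H3-Fc and then purified. Their binding to immobilised recombinant proteins (B7H3 fusion proteins and non-B7H3 control proteins) was measured by ELISA and recorded as the ELISA signal.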

monkey B7H3-His [1] = molecular target: T1, monkey B7H3-His; assay: ELISA; row Monkey; well 1 of 3
In short: as §1

human B7H3 [2] = molecular target: T2, human B7H3; assay: ELISA; row Human; well 3 of 3
In short: as §1

monkey B7H3-His [3] = molecular target: T1, monkey B7H3-His; assay: ELISA; row Monkey; well 3 of 3
In short: as §1

[4] = molecular target: T3, B7H3 (CD276) on MC38-CD276+ cells; assay: flow cytometry on MC38-CD276+ cells, VHH at 0.5 ug/ml
human B7H3 [5] = molecular target: T2, human B7H3; assay: ELISA; row Human; well 2 of 3
In short: as §1

rat B7H3-His = molecular target: T4, rat B7H3-His; assay: phage ELISA, cross-species
In short: (§2)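 Libraries from eight individual camels supplied the camel VHH phage, which were panned on recombinant B7H3-Fc protein for 3 rounds. Phage ELISA then measured how the selected phage bound to immobilised antigens, namely human and other-species B7H3 or control proteins, with the ELISA signal as the recorded value.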

mouse B7H3-His = molecular target: T5, mouse B7H3-His; assay: phage ELISA, cross-species
In short: as §2

[6] = molecular target: T6, recombinant human B7H3-Fc protein; assay: BLI (Octet), human B7H3-Fc; same value printed for 660, 132 and 26.4 nM
Method: FIG. 12: Kinetics of RWC4 on human B7H3-Fc. The association/dissociation properties of RWC4 were measured on the Octet system (Creative Biolabs) using recombinant human B7H3-Fc protein.
The association/dissociation properties of RWC4 and RWG4 were measured on the Octet system (Creative Biolabs) using either recombinant human B7H3-Fc protein or recombinant mouse B7H3-His protein.

| Binder | ELISA reading (name not given) (Irrelevant antigen) | ELISA reading (name not given) (monkey B7H3-His [1]) | ELISA reading (name not given) (human B7H3 [2]) | ELISA reading (name not given) (monkey B7H3-His [3]) | Positive rates [4] | ELISA reading (name not given) (human B7H3 [5]) | ELISA signal (rat B7H3-His) | ELISA signal (mouse B7H3-His) | Kd [6] | koff [6] | kon [6] |
| --- | --- | --- | --- | --- | --- | --- | --- | --- | --- | --- | --- |
| RWC4 (VHH, Camel VHH; tag not described; also called camel antibody RWC4) VHH: EVQLVESGGGSVQAGGSLRLSCVASEDSTSAMCMGWFRQAPGKEREGVACINPTGEVTWYGDSVKGRFTISRDTVKKIVYLQMNSLKPEDTAMYYCAARVTYGGDWSTDTDYEYWGQGTQVTVSS | 0.102 | 1 | 0.938 | 1.04 | 14.4% | 0.979 |  |  | 3.8 nM | 0.000101 s⁻¹ | 26500 M⁻¹ s⁻¹ |
| RWB12 (VHH, Camel VHH; tag not described; also called camel antibody RWB12) VHH: QVQLVESGGGSVQVGGSLRLSCAASGFTYNSYSVGWFRQAPGKEREGVAAINSGGSSTYYAASVKGRFTISRDNAKNTVYLQMNSLKPEDTAMYYCAARSPSPLTFQTRTLREDSYNYWGQGTQVTVSS | 0.0853 | 0.188 | 0.199 | 0.178 | 0.23% | 0.21 | 2.07 |  |  |  |  |

Second part, the binder after the results:

| ELISA reading (name not given) (Irrelevant antigen) | ELISA reading (name not given) (monkey B7H3-His [1]) | ELISA reading (name not given) (human B7H3 [2]) | ELISA reading (name not given) (monkey B7H3-His [3]) | Positive rates [4] | ELISA reading (name not given) (human B7H3 [5]) | ELISA signal (rat B7H3-His) | ELISA signal (mouse B7H3-His) | Kd [6] | koff [6] | kon [6] | Binder |
| --- | --- | --- | --- | --- | --- | --- | --- | --- | --- | --- | --- |
| 0.114 | 0.197 | 0.164 | 0.195 | 0.1% | 0.147 | 2.44 | 2.47 |  |  |  | RWG8 (VHH, Camel VHH; tag not described; also called camel antibody RWG8) VHH: DVQLVESGGGLVQPGGSLRLSCAASGFTFSRYWMGWFRQAPGKGVEWVSTINSGGGSTYYADSVKGRFTISRDNAKNTLYLQLNNLKTEDTAMYYCAKEQWRTGSRGQGTQVTVSS |
|  |  |  |  | 1.25% |  | 0.292 | 0.0665 |  |  |  | RWG4 (VHH, Camel VHH; tag not described; also called camel antibody RWG4) VHH: QVQLVQSGGGLVQPGGSLRLSCAASGFTFSVYWFYWVRQAPRQGLEWVSTIASNGSTYYSDSVKGRFTISRDNAKNTVYLQMNSLKPEDTAVYYCVSDPDYYSDYERAYKFWAQGTQVTVSS |
